Test results taken from patent US20130296258A1 (Pieris, published 2013).

Assays:
mouse GPC3-SK-HEP1 = molecular target: T1, mouse GPC3-SK-HEP1 (mouse, UniProt Q8CFZ4); assay: flow cytometry on SK-HEP1 cells stably transfected with mouse GPC3, detection via rabbit anti-hNGAL antiserum and anti-rabbit IgG-PE
T1 construct: cell-surface protein on transfected cells; also called mouse GPC3 transfected SK-Hep1 cells
Protocol: (§1) Empty vector control cells were also obtained and analyzed in parallel. Detection of GPC3 was achieved using mouse anti-glypican 3 clone 1G12 monoclonal antibody (DCS).
(§2) In order to assess binding of muteins to the GPC3 on the cell surface, 200,000 cells in PBS/2% FCS were used in each binding reaction. Reactions were performed on ice in 30 μl for 2 h. Following two washing steps in PBS/2% FCS a secondary rabbit anti-hNGAL scaffold antiserum was employed for 30 min. followed another two wash steps. […] Measurements were performed on a FACSCalibur flow cytometer where 10,000 events were acquired for each sample. Geometric mean values were compiled in FlowJo (Treestar software) and fitted to a sigmoidal dose response model in the Prism 5 program (GraphPad) to obtain EC50 values.

[1] = molecular target: T2, Recombinant human Glypican-3 (human, UniProt P51654 25-559, limits assumed, randomly biotinylated via Lysine residues (EZ-Link Sulfo-NHS-LC-LC-Biotin) where captured on Neutravidin; not biotinylated where used as competitor in solution); assay: flow cytometry on SK-HEP1 cells stably transfected with human GPC3, detection via rabbit anti-hNGAL antiserum and anti-rabbit IgG-PE
T2 construct: Bought protein; The biotinylated and the non-biotinylated preparation are written as one molecule; also called GPC3; GPC-3
Protocol: as §1, §2

[2] = molecular target: T2, Recombinant human Glypican-3; assay: direct ELISA; biotinylated human Glypican-3 (1 ug/ml) captured via Neutravidin, dilution series of purified mutein
Protocol: (§3) A “direct” ELISA was performed to verify the binding affinity and specificity of the selected Lcn2 muteins. Therefore, a constant concentration of 1 μg/ml biotinylated human Glypican 3 (R&D Systems) was captured on the surface of a polystyrol plate (Greiner, GE) via BSA blocked Neutravidin (Thermo Scientific, 5 μg/ml). Two step dilution series of purified Lcn2 muteins were incubated with the captured GPC-3 for 1 h at room temperature and detected either via the Strep-tag II using a rabbit anti-strep-tag II polyconal antibody (GenScript, USA) or by using a scaffold-specific polyclonal rabbit antibody. In both cases an anti rabbit IgG-HRP conjugate (Abcam, UK) was employed as secondary detection antibody.
(§4) The absorption ΔA at […] was measured in an ELISA reader (Tecan, GE) and the data were fitted with Graphpad Prism software (Statcom, USA).

[3] = molecular target: T2, Recombinant human Glypican-3; assay: competition ELISA: constant mutein pre-incubated with a dilution series of non-biotinylated human Glypican-3, free mutein detected on plate-captured biotinylated human Glypican-3
Protocol: The binding affinity of the Lcn2 muteins to non-modified Glypican-3 in solution was evaluated in a competition ELISA approach. Therefore, a constant concentration of 1 μg/ml biotinylated human Glypican-3 (R&D Systems) was captured on the surface of a polystyrol plate (Greiner, GE) via Neutravidin (Thermo Scientific, 5 μg/ml, GE). In parallel a two step dilution series of non-biotinylated human Glypican-3 starting from 1.5 μM was incubated with a constant concentration of GPC3-specific mutein for 1 h at room temperature in a non-protein binding 96 well polypropylene plate (Nunc, GE). The constant concentration of lipocalin muteins corresponds to the EC₅₀ of the respective muteins as determined in a direct ELISA as described above in this example. In the following the mixture of non-modified human GPC3 and lipocalin mutein was transferred onto the GPC3-captured Neutravidin plate. The biotinylated GPC3 was allowed to compete with the non-modified GPC3 for Anticalin binding for 1 h at room temperature. During these 1 h, free lipcocalin mutein was bound to the captured GPC3 and detected via a rabbit anti-strep-tag II polyconal antibody (GenScript, USA). A goat anti-rabbit IgG-HRP conjugate (Abcam, UK) was employed as secondary detection antibody. Parallel to the competition assay, anticalin binding was determined on the same plate in a “direct” ELISA, in order to obtain a standard curve linking the RFU values to anticalin concentration. This curve was then used to standardize competition data to the level of anticalins bounds to the plate and fitted with Graphpad software. IC₅₀ values correspond to the half-maximum amount of lipocalin mutein bound to the plate.

[4] = molecular target: T2, Recombinant human Glypican-3; assay: SPR (Biacore T100), Glypican-3 amine-coupled to a CM5 chip, mutein as analyte, evaluated conc 40/120 nM, 1:1 model
Protocol: (§5) Real time analysis of the binding of the Lcn2 muteins to Glypican-3 was performed on a Biacore T100 system (GE Healthcare Bio-Sciences AB, Uppsala, Sweden) using HBS-EP+ (BR-1006-69, GE Healthcare Bio-Sciences AB, Uppsala, Sweden) as running buffer. A 10 μg/mL solution of Glypican-3 in 10 mM sodium acetate pH 4.5 was immobilized onto a CM5 chip (GE Healthcare Bio-Sciences AB, Uppsala, Sweden) using standard amine coupling chemistry, resulting in a ligand density of 467 RU. The purified Lcn2 muteins were applied in concentrations of 40 nM and 120 nM at a flow rate of 30 μL/min. The dilutions were injected with association times of 120 sec and dissociation times of 420 sec to obtain ka and kd information. Regeneration of the ligand was achieved by injecting either 6 M Guanidinium-HCl (120 sec/300 sec) or 3 M MgCl2 (900 sec) with a flow rate of 10 μL/min. Injection of regeneration solutions was followed by an extra wash step with running buffer and a stabilization period of 180 sec.
(§6) The data were double-referenced by subtraction of the corresponding signals measured for the control channel, which had been activated and blocked with ethanolamine and by substraction of buffer injections from the binding responses. ka and kd for the binding reaction were determined using Biacore T100 Evaluation Software V2.0.1 for data processing and kinetic fitting. The data were globally fit with 1:1 binding model.

cyno GPC3-SK-HEP1 = molecular target: T3, cyno GPC3-SK-HEP1 (Macaca fascicularis, UniProt A0A2K5VK50); assay: flow cytometry on SK-HEP1 cells stably transfected with cynomolgus GPC3, detection via rabbit anti-hNGAL antiserum and anti-rabbit IgG-PE
T3 construct: cell-surface protein on transfected cells; also called cynomolgus GPC3; cyno GPC3 transfected SK-Hep1 cells
Protocol: as §1, §2

[5] = molecular target: T2, Recombinant human Glypican-3; assay: direct ELISA: biotinylated human Glypican-3 captured via Neutravidin, protein titrated, RFU readout
Protocol: as §3, §4

[6] = molecular target: T2, Recombinant human Glypican-3; assay: SPR (Biacore T100), Glypican-3 amine-coupled to a CM5 chip, mutein as analyte, evaluated conc 120 nM, 1:1 model
Protocol: as §5, §6

T2 sequence (P51654 25-559 limits assumed): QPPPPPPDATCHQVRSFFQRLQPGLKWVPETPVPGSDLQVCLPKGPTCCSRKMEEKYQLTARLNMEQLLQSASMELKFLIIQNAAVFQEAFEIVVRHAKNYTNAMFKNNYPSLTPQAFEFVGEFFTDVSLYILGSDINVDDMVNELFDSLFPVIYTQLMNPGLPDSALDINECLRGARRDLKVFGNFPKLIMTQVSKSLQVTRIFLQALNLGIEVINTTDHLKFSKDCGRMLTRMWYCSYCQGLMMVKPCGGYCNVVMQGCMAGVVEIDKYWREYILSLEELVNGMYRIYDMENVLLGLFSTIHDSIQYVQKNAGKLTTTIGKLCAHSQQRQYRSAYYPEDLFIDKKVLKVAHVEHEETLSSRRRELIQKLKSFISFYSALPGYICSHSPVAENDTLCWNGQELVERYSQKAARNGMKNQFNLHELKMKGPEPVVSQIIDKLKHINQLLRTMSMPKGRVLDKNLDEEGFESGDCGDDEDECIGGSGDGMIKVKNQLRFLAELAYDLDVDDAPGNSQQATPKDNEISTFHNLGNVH
T1 sequence (Q8CFZ4 25-553 limits assumed): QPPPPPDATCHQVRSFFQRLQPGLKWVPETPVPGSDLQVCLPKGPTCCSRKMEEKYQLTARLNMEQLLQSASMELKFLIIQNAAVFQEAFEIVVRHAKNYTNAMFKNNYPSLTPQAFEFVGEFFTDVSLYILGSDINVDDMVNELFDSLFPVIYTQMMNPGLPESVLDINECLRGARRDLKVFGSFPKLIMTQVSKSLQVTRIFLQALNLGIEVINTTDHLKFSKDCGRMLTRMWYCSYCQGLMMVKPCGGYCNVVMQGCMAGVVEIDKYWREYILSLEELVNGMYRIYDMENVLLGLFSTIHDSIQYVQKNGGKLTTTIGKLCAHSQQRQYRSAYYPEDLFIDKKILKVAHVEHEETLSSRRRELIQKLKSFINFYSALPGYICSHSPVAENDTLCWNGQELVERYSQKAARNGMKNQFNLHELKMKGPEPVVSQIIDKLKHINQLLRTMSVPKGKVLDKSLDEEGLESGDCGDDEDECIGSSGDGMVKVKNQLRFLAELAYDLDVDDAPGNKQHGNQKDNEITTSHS

B1: PIE-G3G (designed binder)
chain: QDSTSDLIPAPPLSKVPLQQNFQDNQFHGKWYVVGMAGNASLREDKDPRKMNATIYELKEDKSYNVTKVRFWHKKCYYSITTFVPGSQPGEFTLGDIKSYPGWTSYLVRVVSTNYNQHAMVFFKGVRQNREWFSITLYGRTKELTSELKENFIRFSKSLGLPENHIVFPVPIDQCIDGSAWSHPQFEK
notes: C-terminal Strep-tag II; also called Lcn2 mutein; not shown: C-terminal Strep-tag II
Mouse GPC3-SK-HEP1
  EC50: 4.3 nM
[1]
  EC50: 0.7 nM
[2]
  Kd: 0.27 nM
[3]
  IC50: 0.1 nM
[4]
  Kd: 0.51 nM
  koff: 0.000723 s⁻¹
  kon: 1.42e+06 M⁻¹ s⁻¹
Cyno GPC3-SK-HEP1
  EC50: 0.2 nM

B2: Lcn2 wildtype protein (other)
chain: QDSTSDLIPAPPLSKVPLQQNFQDNQFHGKWYVVGLAGNAILREDKDPQKMYATIYELKEDKSYNVTSVLFRKKKCDYWIRTFVPGSQPGEFTLGNIKSYPGLTSYLVRVVSTNYNQHAMVFFKKVSQNREYFKITLYGRTKELTSELKENFIRFSKSLGLPENHIVFPVPIDQCIDG
notes: also called recombinant Lcn2; negative control; not shown: C-terminal Strep-tag II of the phNGAL98 expression vector
[5]
  binding result: no binding

B3: PIE-G3H (designed binder)
chain: QDSTSDLIPAPPLSKVPLQQNFQDNQFHGKWYVVGIAGNYILREDKDPPKMRATIYELKEDKSYNVTRVFFSRKKCDYIIWTFVPGSQPGEFTLGFIKSNPGLTSLLVRVVSTNYNQHAMVFFKWVDQNREVFGITLYGRTKELTSELKENFIRFSKSLGLPENHIVFPVPIDQCIDGSAWSHPQFEK
notes: as for B1
[6]
  Kd: 1.07 nM
  koff: 0.000209 s⁻¹
  kon: 195000 M⁻¹ s⁻¹
Mouse GPC3-SK-HEP1
  EC50: 580 nM
[1]
  EC50: 49 nM
[2]
  Kd: 0.3 nM
[3]
  IC50: 0.23 nM
Cyno GPC3-SK-HEP1
  EC50: 98 nM

B4: PIE-G3F (designed binder)
chain: QDSTSDLIPAPPLSKVPLQQNFQDNQFHGKWYVVGIAGNGQLREDKDPWKMSATIYELKEDKSYNVTSVRFRLKKCSYWIYTFVPGSQPGEFTLGGIKSNPGDTSNLVRVVSTNYNQHAMVFFKYVIQNREWFIITLYGRTKELTSELKENFIRFSKSLGLPENHIVFPVPIDQCIDGSAWSHPQFEK
notes: as for B1
Mouse GPC3-SK-HEP1
  EC50: 18.7 nM
[1]
  EC50: 4.7 nM
[2]
  Kd: 0.35 nM
[3]
  IC50: 0.07 nM
[4]
  Kd: 3.13 nM
  koff: 0.00128 s⁻¹
  kon: 409000 M⁻¹ s⁻¹
Cyno GPC3-SK-HEP1
  EC50: 3.2 nM

B5: PIE-G3C (designed binder)
chain: QDSTSDLIPAPPLSKVPLQQNFQDNQFHGKWYVVGRAGNVALREDKDPPKMRATIYELKEDKSYNVTNVRFAMKKCMYSIGTFVPGSQPGEFTLGQIKSEPGNTSNLVRVVSTNYNQHAMVFFKEVYQNREIFFITLYGRTKELTSELKENFIRFSKSLGLPENHIVFPVPIDQCIDGSAWSHPQFEK
notes: as for B1
Mouse GPC3-SK-HEP1
  EC50: 3.5 nM
[1]
  EC50: 0.5 nM
[2]
  Kd: 0.32 nM
[3]
  IC50: 1 nM
[4]
  Kd: 1.21 nM
  koff: 0.00238 s⁻¹
  kon: 1.97e+06 M⁻¹ s⁻¹
Cyno GPC3-SK-HEP1
  EC50: 0.2 nM

B6: PIE-G3E (designed binder)
chain: QDSTSDLIPAPPLSKVPLQQNFQDNQFHGKWYVVGSAGNHRLREDKDPRKMHATIYELKEDKSYNVTNVTFREKKCHYSIGTFVPGSQPGEFTLGKIKSNPGMTSFLVRVVSTNYNQHAMVFFKKVHQNREQFNITLYGRTKELTSELKENFIRFSKSLGLPENHIVFPVPIDQCIDGSAWSHPQFEK
notes: as for B1
Mouse GPC3-SK-HEP1
  EC50: 2.7 nM
[1]
  EC50: 0.4 nM
[2]
  Kd: 0.2 nM
[3]
  IC50: 0.1 nM
[4]
  Kd: 0.35 nM
  koff: 0.00178 s⁻¹
  kon: 5.11e+06 M⁻¹ s⁻¹
Cyno GPC3-SK-HEP1
  EC50: 0.12 nM

B7: PIE-G3D (designed binder)
chain: QDSTSDLIPAPPLSKVPLQQNFQDNQFHGKWYVVGMAGNARLREDKDPVKMTATIYELKEDKSYNVTAVQFRLKKCQYGITTFVPGSQPGEFTLGDIKSIPGLTSMLVRVVSTNYNQHAMVFFKRVRQNREFFDITLYGRTKELTSELKENFIRFSKSLGLPENHIVFPVPIDQCIDGSAWSHPQFEK
notes: as for B1
Mouse GPC3-SK-HEP1
  EC50: 10.5 nM
[1]
  EC50: 1 nM
[2]
  Kd: 0.46 nM
[3]
  IC50: 0.7 nM
[4]
  Kd: 1.4 nM
  koff: 0.00109 s⁻¹
  kon: 781000 M⁻¹ s⁻¹
Cyno GPC3-SK-HEP1
  EC50: 0.7 nM

B8: PIE-G3B (designed binder)
chain: QDSTSDLIPAPPLSKVPLQQNFQDNQFHGKWYVVGVAGNAMLREDKDPLKMRATIYELKEDKSYNVTGVSFWRKKCHYKIGTFVPGSQPGEFTLGDIKSGPGQTSNLVRVVSTNYNQHAMVFFKEVRQNREWFAITLYGRTKELTSELKENFIRFSKSLGLPENHIVFPVPIDQCIDGSAWSHPQFEK
notes: as for B1
Mouse GPC3-SK-HEP1
  EC50: 2.9 nM
[1]
  EC50: 2.5 nM
[2]
  Kd: 0.27 nM
[3]
  IC50: 0.2 nM
[4]
  Kd: 0.55 nM
  koff: 0.000242 s⁻¹
  kon: 438000 M⁻¹ s⁻¹
Cyno GPC3-SK-HEP1
  EC50: 1.1 nM

B9: PIE-G3A (designed binder)
chain: QDSTSDLIPAPPLSKVPLQQNFQDNQFHGKWYVVGIAGNWILREDKDPPKMRATIYELKEDKSYNVTRVRFDEKKCGYGIATFVPGSQPGEFTLGVIKSRPGITSDLVRVVSTNYNQHAMVFFKFVKQNREYFGITLYGRTKELTSELKENFIRFSKSLGLPENHIVFPVPIDQCIDGSAWSHPQFEK
notes: Made in E. coli from phNGAL98 with a C-terminal Strep-tag II; also called Lcn2 mutein; not shown: C-terminal Strep-tag II
[1]
  EC50: > 100 nM
[2]
  Kd: 7.6 nM
[3]
  IC50: 0.6 nM
[4]
  Kd: 3.78 nM
  koff: 0.000603 s⁻¹
  kon: 160000 M⁻¹ s⁻¹
Cyno GPC3-SK-HEP1
  EC50: > 100 nM
